According to article PMC4271445:

Molecular target: Nullbasic-FLAG-V5-6xHis (HIV-1)
Assay: BLI

B1: Myc-DDK-tagged DDX1 (natural protein)
chain: MAAFSEMGVMPEIAQAVEEMDWLLPTDIQAESIPLILGGGDVLMAAETGSGKTGAFSIPVIQIVYETLKDQQEGKKGKTTIKTGASVLNKWQMNPYDRGSAFAIGSDGLCCQSREVKEWHGCRATKGLMKGKHYYEVSCHDQGLCRVGWSTMQASLDLGTDKFGFGFGGTGKKSHNKQFDNYGEEFTMHDTIGCYLDIDKGHVKFSKNGKDLGLAFEIPPHMKNQALFPACVLKNAELKFNFGEEEFKFPPKDGFVALSKAPDGYIVKSQHSGNAQVTQTKFLPNAPKALIVEPSRELAEQTLNNIKQFKKYIDNPKLRELLIIGGVAARDQLSVLENGVDIVVGTPGRLDDLVSTGKLNLSQVRFLVLDEADGLLSQGYSDFINRMHNQIPQVTSDGKRLQVIVCSATLHSFDVKKLSEKIMHFPTWVDLKGEDSVPDTVHHVVVPVNPKTDRLWERLGKSHIRTDDVHAKDNTRPGANSPEMWSEAIKILKGEYAVRAIKEHKMDQAIIFCRTKIDCDNLEQYFIQQGGGPDKKGHQFSCVCLHGDRKPHERKQNLERFKKGDVRFLICTDVAARGIDIHGVPYVINVTLPDEKQNYVHRIGRVGRAERMGLAISLVATEKEKVWYHVCSSRGKGCYNTRLKEDGGCTIWYNEMQLLSEIEEHLNCTISQVEPDIKVPVDEFDGKVTYGQKRAAGGGSYKGHVDILAPTVQELAALEKEAQTSFLHLGYLPNQLFRTF
- Kd: 6 nM
